Results on six molecules are retold here after US20100330078A1 (Pfizer, published 2010).

Numbering of substitutions follows the chain as printed.

The Kd is the concentration at which binding is half-saturated. A low value points to tighter binding.

The target in assay [1] is T1, human integrin α5β1 on cells (endogenous, HUVEC; tumor or endothelial-expressed) (human, UniProt P08648 42-1049; P05556 21-798). Put plainly: cell-based or functional assay.
Assay [2] concerns the target T1, human integrin α5β1 on cells …. Put plainly: cell-based or functional assay. The source holds these as a separate data set.
The target is the same in assay [3]. As to the kind of experiment: FACS on HUVEC (endogenous human α5β1), GeoMean against mAb concentration, fitted; experiment 030207.
Assay [4] shares this target. As to the kind of experiment: FACS on HUVEC (endogenous human α5β1), GeoMean against mAb concentration, fitted; experiment 031307. How it is done:
The 22B5/DLE, 24C7/DLE, 1 D9/DLE, and 2D2/DLE antibodies were tested for their binding affinity to cell surface integrin α5 using a FACS assay, employing endogenous human integrin α5β1 expressing cells (HUVEC). Briefly, the cells were detached using trypsin-EDTA and washed with cold PBS. After being aliquoted into 96-well plates, the cells were blocked by serum and incubated with different concentrations of specific mAb for 1 hour at 4° C. Subsequently, the cells were washed and incubated with an anti-human κ secondary antibody conjugated with the R-PE fluorophore and analyzed using a FACSCalibur flow cytometer. 10,000 events were collected for each sample without applying any gating. For KD determination, the Geometric Mean of each sample histogram was calculated and plotted as a function of the mAb concentration. KD was calculated after fitting to a two-state equilibrium model.

T1 sequence (P08648 42-1049, chain 1 of 2): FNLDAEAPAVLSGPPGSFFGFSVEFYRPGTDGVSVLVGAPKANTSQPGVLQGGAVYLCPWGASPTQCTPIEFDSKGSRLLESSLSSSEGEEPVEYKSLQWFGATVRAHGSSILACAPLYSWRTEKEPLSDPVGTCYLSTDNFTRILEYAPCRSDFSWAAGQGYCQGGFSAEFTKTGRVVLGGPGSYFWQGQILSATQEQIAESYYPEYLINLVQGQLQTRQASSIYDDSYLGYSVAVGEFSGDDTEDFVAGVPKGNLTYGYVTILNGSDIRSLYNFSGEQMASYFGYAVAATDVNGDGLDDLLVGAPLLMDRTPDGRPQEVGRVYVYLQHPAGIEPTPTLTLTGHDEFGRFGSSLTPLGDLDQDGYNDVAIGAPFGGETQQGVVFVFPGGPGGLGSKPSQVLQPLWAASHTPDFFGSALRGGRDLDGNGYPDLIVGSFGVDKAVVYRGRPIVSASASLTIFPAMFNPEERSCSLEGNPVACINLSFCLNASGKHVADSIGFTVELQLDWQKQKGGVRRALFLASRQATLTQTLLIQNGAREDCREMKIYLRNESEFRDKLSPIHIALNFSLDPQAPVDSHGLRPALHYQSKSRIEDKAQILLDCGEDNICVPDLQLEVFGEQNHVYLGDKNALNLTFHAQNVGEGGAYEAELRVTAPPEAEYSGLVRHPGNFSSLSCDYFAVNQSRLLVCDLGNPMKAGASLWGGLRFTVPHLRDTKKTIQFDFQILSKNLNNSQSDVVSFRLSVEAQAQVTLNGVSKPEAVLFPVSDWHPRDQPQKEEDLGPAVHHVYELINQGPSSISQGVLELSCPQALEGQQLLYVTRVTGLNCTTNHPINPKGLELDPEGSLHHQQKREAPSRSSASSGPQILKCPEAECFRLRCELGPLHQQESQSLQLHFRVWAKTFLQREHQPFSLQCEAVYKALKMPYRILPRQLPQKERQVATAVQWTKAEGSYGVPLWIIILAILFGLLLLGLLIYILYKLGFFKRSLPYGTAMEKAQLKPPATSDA
T1 sequence (P05556 21-798, chain 2 of 2): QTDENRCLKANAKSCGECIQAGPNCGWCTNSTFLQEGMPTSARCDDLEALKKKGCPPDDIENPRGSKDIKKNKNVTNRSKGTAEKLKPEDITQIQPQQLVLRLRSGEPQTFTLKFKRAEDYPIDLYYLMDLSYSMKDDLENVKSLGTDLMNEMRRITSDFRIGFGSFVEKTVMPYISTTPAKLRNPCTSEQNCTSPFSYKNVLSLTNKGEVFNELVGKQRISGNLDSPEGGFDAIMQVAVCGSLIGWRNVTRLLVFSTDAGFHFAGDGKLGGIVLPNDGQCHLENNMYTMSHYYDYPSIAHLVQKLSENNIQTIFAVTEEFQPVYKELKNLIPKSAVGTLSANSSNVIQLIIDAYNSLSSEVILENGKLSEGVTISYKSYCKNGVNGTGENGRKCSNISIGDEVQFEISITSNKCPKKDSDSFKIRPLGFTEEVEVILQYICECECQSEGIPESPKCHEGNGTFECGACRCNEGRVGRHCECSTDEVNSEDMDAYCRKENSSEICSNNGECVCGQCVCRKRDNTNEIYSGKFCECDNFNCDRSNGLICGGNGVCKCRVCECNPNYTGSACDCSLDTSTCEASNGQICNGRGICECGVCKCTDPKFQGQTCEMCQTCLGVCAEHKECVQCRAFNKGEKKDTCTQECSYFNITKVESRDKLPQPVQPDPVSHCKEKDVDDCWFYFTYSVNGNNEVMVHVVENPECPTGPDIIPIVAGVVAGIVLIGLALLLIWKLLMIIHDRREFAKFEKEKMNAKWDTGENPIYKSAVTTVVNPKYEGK

B1: 22B5 wild type IgG1 (antibody, V domains shown)
VH: QLQLQESGPGLVKPSETLSLTCTVSGGSISSSSYWGWIRQPPGKGLEWIGSIYYSGRNYNNPSLKSRVTISVDTSKNQFSLKLSSVTAADTAVYYCARHYYGSGSSYYYYDLDVWGQGTTVTVSS
VL: EIVLTQSPATLSLSPGERATLSCRASQSVSSYLAWYQQKPGQAPRLLIYDASNRATGIPARFSGSGSGTDFTLTISSLEPEDFAVYYCQQRSNWPLTFGGGTKVEIK
notes: Human IgG1 with wild type Fc (no DLE mutations); also called 22B5 wt IgG1; wt 22B5 IgG1
Consider B1, for which the “ADCC EC50, human PBMCs” value in assay [1] is 0.23 nM. Besides, the “IC50, inhibition of HUVEC adhesion to fibronectin (fluorescence 485/535 nM)” value (“IC50, inhibition of HUVEC adhesion” below) in assay [2] came out at 0.43 nM. Binding in assay [3] was put at a Kd of 1.95 nM.

B2: 22B5 IgG2 (antibody, V domains shown)
VH: B1 VH
VL: B1 VL
For the molecule B2, the “IC50, inhibition of HUVEC adhesion” value in assay [2] stood at 0.37 nM.

B3: 1D9/DLE (antibody, V domains shown)
VH: QVQLVESGGGVVQPGRSLRLSCAASGFPFSTYAMHWVRQAPGKGLEWVAVISYDGSNKYYADSVKGRFTISRDNSKNTLYLQMNSLRAEDTAVYYCARESPPIYYYYGMDVWGQGTTVTVSS
VL: B1 VL with L96R, G100Q
notes: also called 1D9 IgG1 DLE; 1D9 G1 DLE
With B3, the Kd in assay [4] was determined as 1.49 nM; in assay [3] it was 1.68 nM.

B4: 22B5 IgG4 (antibody, V domains shown)
VH: B1 VH
VL: B1 VL
Consider B4, for which the “IC50, inhibition of HUVEC adhesion” value in assay [2] was 0.57 nM.

B5: 1D9 (antibody, IgG1, V domains shown)
VH: B3 VH
VL: B1 VL with L96R, G100Q
notes: also called 1D9 G1; I D9
Molecule B5 showed a Kd in assay [3] of 1.69 nM.

B6: 2D2/DLE (antibody, IgG1, V domains shown)
VH: QVQLVESGGGVVQPGRSLRLSCAASGFTFSSYAMHWVRQAPGKGLEWVAVISFDGSTKYYADSVKGRFTISRDNSKNTLDLQMNSLRAEDTALYYCAREYWGTYYYGTDVWGQGTTVIVSS
VL: B1 VL with S30N, L96R, G100Q
notes: Constant regions: see the note of 1D9/DLE; also called 2D2 IgG1 DLE
On to B6, for which the figures for the Kd in assay [4] and in assay [3] were 7.32 nM and 8.78 nM, respectively.
